In article PMC9482650, “Quantitative fragmentomics allow affinity mapping of interactomes” (Nature Communications, 2022):

T1: APBA2_1, Q99767
T1 sequence (Q99767 563-664, limits assumed, looked up): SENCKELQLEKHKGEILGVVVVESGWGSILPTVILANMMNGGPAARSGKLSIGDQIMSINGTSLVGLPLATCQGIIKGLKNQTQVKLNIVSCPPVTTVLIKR

T2: SHANK1, Q9Y566
T2 sequence (Q9Y566 658-767, limits assumed, looked up): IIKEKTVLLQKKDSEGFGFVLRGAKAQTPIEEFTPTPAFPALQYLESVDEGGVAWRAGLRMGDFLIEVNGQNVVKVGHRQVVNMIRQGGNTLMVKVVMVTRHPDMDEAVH

T3: FRMPD1, Q5SYB0
T3 sequence (Q5SYB0 52-145, limits assumed, looked up): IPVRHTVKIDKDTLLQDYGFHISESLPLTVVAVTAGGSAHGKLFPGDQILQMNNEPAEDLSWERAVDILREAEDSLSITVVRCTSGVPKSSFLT

T4: SYNJ2BP, P57105
T4 sequence (P57105 8-110, limits assumed, looked up): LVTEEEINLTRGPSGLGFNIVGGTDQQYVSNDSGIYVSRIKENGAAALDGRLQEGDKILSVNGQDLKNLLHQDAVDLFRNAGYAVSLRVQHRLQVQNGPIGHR

T5: SNTB1, Q13884
T5 sequence (Q13884 107-205, limits assumed, looked up): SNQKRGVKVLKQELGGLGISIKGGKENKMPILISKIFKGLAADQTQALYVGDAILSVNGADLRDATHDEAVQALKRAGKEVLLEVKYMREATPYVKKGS

T6: ARHGAP21, Q5T5U3
T6 sequence (Q5T5U3 45-169, limits assumed, looked up): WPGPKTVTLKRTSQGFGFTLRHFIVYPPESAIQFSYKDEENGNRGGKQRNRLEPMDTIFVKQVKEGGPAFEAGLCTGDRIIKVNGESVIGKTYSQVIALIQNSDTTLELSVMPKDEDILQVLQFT

T7: GRIP1_5, Q9Y3R0
T7 sequence (Q9Y3R0 568-668, limits assumed, looked up): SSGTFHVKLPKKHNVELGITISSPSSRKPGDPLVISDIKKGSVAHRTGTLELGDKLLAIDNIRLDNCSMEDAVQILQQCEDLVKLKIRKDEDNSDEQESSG

T8: DLG3_2, Q92796
T8 sequence (Q92796 221-321, limits assumed, looked up): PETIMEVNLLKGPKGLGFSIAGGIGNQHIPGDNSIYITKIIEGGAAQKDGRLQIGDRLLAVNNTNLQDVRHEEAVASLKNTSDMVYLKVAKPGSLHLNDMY

T9: PDZD7_3, Q9H5P4
T9 sequence (Q9H5P4 857-944, limits assumed, looked up): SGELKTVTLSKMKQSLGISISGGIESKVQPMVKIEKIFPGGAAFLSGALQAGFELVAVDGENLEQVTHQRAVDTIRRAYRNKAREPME

T10: APBA3_1, O96018
T10 sequence (O96018 389-490, limits assumed, looked up): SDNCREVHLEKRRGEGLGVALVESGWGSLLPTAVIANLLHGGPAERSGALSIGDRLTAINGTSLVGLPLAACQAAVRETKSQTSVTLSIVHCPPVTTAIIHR

T11: DLG3_1, Q92796
T11 sequence (Q92796 125-227, limits assumed, looked up): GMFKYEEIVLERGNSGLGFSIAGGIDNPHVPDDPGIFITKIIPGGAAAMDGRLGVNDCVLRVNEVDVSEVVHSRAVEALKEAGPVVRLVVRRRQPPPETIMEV

T12: TJP3_3, O95049
T12 sequence (O95049 375-456, limits assumed, looked up): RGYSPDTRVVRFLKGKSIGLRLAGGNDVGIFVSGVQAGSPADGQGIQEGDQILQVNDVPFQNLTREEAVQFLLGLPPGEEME

T13: DVL3, Q92997
T13 sequence (Q92997 244-331, limits assumed, looked up): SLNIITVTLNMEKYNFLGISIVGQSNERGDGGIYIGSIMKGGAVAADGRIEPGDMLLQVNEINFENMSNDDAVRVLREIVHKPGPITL


target: T1, APBA2_1, Q99767; assay: holdup assay; design: key: below the threshold = too weak to quantify, mostly under pKd 3.1 to 4; conditions: plain residues with an end cap or a label only (N-terminal biotin on a linker: ado-ado)

pKd | Binder
below the threshold | SAGADSETHC [SLCO1B1, Q9Y6L6]
below the threshold | FLVTEFNVML [DFNB31, Q9P202]

target: T2, SHANK1, Q9Y566; assay: holdup assay; design: key: below the threshold = too weak to quantify, mostly under pKd 3.1 to 4; conditions: plain residues with an end cap or a label only (N-terminal biotin on a linker: ado-ado)

pKd | Binder
below the threshold | SAGADSETHC [SLCO1B1, Q9Y6L6]
3.84 | FLVTEFNVML [DFNB31, Q9P202]

target: T3, FRMPD1, Q5SYB0; assay: holdup assay; design: key: below the threshold = too weak to quantify, mostly under pKd 3.1 to 4; conditions: plain residues with an end cap or a label only (N-terminal biotin on a linker: ado-ado)

pKd | Binder
below the threshold | SAGADSETHC [SLCO1B1, Q9Y6L6]
below the threshold | FLVTEFNVML [DFNB31, Q9P202]

target: SCRIB_2, Q14160; assay: holdup assay; design: key: below the threshold = too weak to quantify, mostly under pKd 3.1 to 4; conditions: plain residues with an end cap or a label only (N-terminal biotin on a linker: ado-ado)
Sequence (Q14160 857-960): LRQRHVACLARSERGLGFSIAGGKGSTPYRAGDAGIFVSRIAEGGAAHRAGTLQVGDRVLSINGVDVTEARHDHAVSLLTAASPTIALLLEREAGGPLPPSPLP

pKd | Binder
below the threshold | SAGADSETHC [SLCO1B1, Q9Y6L6]
below the threshold | FLVTEFNVML [DFNB31, Q9P202]

target: Inadl_4, Q8NI35; assay: holdup assay; design: key: below the threshold = too weak to quantify, mostly under pKd 3.1 to 4; conditions: plain residues with an end cap or a label only (N-terminal biotin on a linker: ado-ado)
Sequence (Q8NI35 547-651): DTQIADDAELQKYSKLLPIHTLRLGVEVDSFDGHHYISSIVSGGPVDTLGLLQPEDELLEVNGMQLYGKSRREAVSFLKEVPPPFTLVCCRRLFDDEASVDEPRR

pKd | Binder
below the threshold | SAGADSETHC [SLCO1B1, Q9Y6L6]
below the threshold | FLVTEFNVML [DFNB31, Q9P202]

target: T4, SYNJ2BP, P57105; assay: holdup assay; design: key: below the threshold = too weak to quantify, mostly under pKd 3.1 to 4; conditions: plain residues with an end cap or a label only (N-terminal biotin on a linker: ado-ado)

pKd | Binder
below the threshold | SAGADSETHC [SLCO1B1, Q9Y6L6]
below the threshold | FLVTEFNVML [DFNB31, Q9P202]

target: GRID2IP_2, A4D2P6; assay: holdup assay; design: key: below the threshold = too weak to quantify, mostly under pKd 3.1 to 4; conditions: plain residues with an end cap or a label only (N-terminal biotin on a linker: ado-ado)
Sequence (A4D2P6 272-370): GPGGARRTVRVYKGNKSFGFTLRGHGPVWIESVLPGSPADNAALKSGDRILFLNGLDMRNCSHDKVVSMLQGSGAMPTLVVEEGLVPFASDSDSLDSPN

pKd | Binder
below the threshold | SAGADSETHC [SLCO1B1, Q9Y6L6]
below the threshold | FLVTEFNVML [DFNB31, Q9P202]

target: DLG1_2, Q12959; assay: holdup assay; design: key: below the threshold = too weak to quantify, mostly under pKd 3.1 to 4; conditions: plain residues with an end cap or a label only (N-terminal biotin on a linker: ado-ado)
Sequence (Q12959 314-412): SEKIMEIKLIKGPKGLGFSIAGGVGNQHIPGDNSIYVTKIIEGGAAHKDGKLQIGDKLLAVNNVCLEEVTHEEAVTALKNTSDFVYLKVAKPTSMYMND

pKd | Binder
below the threshold | SAGADSETHC [SLCO1B1, Q9Y6L6]
below the threshold | FLVTEFNVML [DFNB31, Q9P202]

target: T5, SNTB1, Q13884; assay: holdup assay; design: key: below the threshold = too weak to quantify, mostly under pKd 3.1 to 4; conditions: plain residues with an end cap or a label only (N-terminal biotin on a linker: ado-ado)

pKd | Binder
3.87 | SAGADSETHC [SLCO1B1, Q9Y6L6]
below the threshold | FLVTEFNVML [DFNB31, Q9P202]

target: T6, ARHGAP21, Q5T5U3; assay: holdup assay; design: key: below the threshold = too weak to quantify, mostly under pKd 3.1 to 4; conditions: plain residues with an end cap or a label only (N-terminal biotin on a linker: ado-ado)

pKd | Binder
4.02 | SAGADSETHC [SLCO1B1, Q9Y6L6]
4.61 | FLVTEFNVML [DFNB31, Q9P202]

target: T7, GRIP1_5, Q9Y3R0; assay: holdup assay; design: key: below the threshold = too weak to quantify, mostly under pKd 3.1 to 4; conditions: plain residues with an end cap or a label only (N-terminal biotin on a linker: ado-ado)

pKd | Binder
below the threshold | SAGADSETHC [SLCO1B1, Q9Y6L6]
below the threshold | FLVTEFNVML [DFNB31, Q9P202]

target: MAST1, Q9Y2H9; assay: holdup assay; design: key: below the threshold = too weak to quantify, mostly under pKd 3.1 to 4; conditions: plain residues with an end cap or a label only (N-terminal biotin on a linker: ado-ado)
Sequence (Q9Y2H9 962-1065): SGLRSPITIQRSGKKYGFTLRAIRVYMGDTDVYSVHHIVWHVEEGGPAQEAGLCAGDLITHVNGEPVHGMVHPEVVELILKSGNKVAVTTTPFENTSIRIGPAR

pKd | Binder
3.9 | SAGADSETHC [SLCO1B1, Q9Y6L6]
3.89 | FLVTEFNVML [DFNB31, Q9P202]

target: T8, DLG3_2, Q92796; assay: holdup assay; design: key: below the threshold = too weak to quantify, mostly under pKd 3.1 to 4; conditions: plain residues with an end cap or a label only (N-terminal biotin on a linker: ado-ado)

pKd | Binder
below the threshold | SAGADSETHC [SLCO1B1, Q9Y6L6]
below the threshold | FLVTEFNVML [DFNB31, Q9P202]

target: Inadl_6, Q8NI35; assay: holdup assay; design: key: below the threshold = too weak to quantify, mostly under pKd 3.1 to 4; conditions: plain residues with an end cap or a label only (N-terminal biotin on a linker: ado-ado)
Sequence (Q8NI35 1058-1167): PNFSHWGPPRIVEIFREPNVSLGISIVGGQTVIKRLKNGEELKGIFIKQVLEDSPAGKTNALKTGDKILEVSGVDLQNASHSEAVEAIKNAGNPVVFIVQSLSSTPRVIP

pKd | Binder
below the threshold | SAGADSETHC [SLCO1B1, Q9Y6L6]
below the threshold | FLVTEFNVML [DFNB31, Q9P202]

target: T9, PDZD7_3, Q9H5P4; assay: holdup assay; design: key: below the threshold = too weak to quantify, mostly under pKd 3.1 to 4; conditions: plain residues with an end cap or a label only (N-terminal biotin on a linker: ado-ado)

pKd | Binder
below the threshold | SAGADSETHC [SLCO1B1, Q9Y6L6]
4.47 | FLVTEFNVML [DFNB31, Q9P202]

target: HTRA1, Q92743; assay: holdup assay; design: key: below the threshold = too weak to quantify, mostly under pKd 3.1 to 4; conditions: plain residues with an end cap or a label only (N-terminal biotin on a linker: ado-ado)
Sequence (Q92743 360-477): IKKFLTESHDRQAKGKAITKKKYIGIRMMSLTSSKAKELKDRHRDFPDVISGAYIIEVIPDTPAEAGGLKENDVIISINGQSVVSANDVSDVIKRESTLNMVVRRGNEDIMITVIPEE

pKd | Binder
3.51 | SAGADSETHC [SLCO1B1, Q9Y6L6]
4.4 | FLVTEFNVML [DFNB31, Q9P202]

target: T10, APBA3_1, O96018; assay: holdup assay; design: key: below the threshold = too weak to quantify, mostly under pKd 3.1 to 4; conditions: plain residues with an end cap or a label only (N-terminal biotin on a linker: ado-ado)

pKd | Binder
below the threshold | SAGADSETHC [SLCO1B1, Q9Y6L6]
below the threshold | FLVTEFNVML [DFNB31, Q9P202]

target: GRIP2_4, Q9C0E4; assay: holdup assay; design: key: below the threshold = too weak to quantify, mostly under pKd 3.1 to 4; conditions: plain residues with an end cap or a label only (N-terminal biotin on a linker: ado-ado)
Sequence (Q9C0E4 446-548): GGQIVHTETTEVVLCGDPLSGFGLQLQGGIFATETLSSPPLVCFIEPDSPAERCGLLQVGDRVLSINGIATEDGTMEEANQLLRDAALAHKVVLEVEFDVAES

pKd | Binder
below the threshold | SAGADSETHC [SLCO1B1, Q9Y6L6]
below the threshold | FLVTEFNVML [DFNB31, Q9P202]

target: MAGI2_5, Q86UL8; assay: holdup assay; design: key: below the threshold = too weak to quantify, mostly under pKd 3.1 to 4; conditions: plain residues with an end cap or a label only (N-terminal biotin on a linker: ado-ado)
Sequence (Q86UL8 915-1017): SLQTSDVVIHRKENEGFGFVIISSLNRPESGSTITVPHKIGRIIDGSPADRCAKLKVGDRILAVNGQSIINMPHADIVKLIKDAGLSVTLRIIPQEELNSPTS

pKd | Binder
below the threshold | SAGADSETHC [SLCO1B1, Q9Y6L6]
below the threshold | FLVTEFNVML [DFNB31, Q9P202]

target: MAGI2_6, Q86UL8; assay: holdup assay; design: key: below the threshold = too weak to quantify, mostly under pKd 3.1 to 4; conditions: plain residues with an end cap or a label only (N-terminal biotin on a linker: ado-ado)
Sequence (Q86UL8 1141-1229): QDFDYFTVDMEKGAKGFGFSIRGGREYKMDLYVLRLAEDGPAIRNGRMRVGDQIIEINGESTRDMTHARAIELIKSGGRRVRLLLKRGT

pKd | Binder
below the threshold | SAGADSETHC [SLCO1B1, Q9Y6L6]
4.78 | FLVTEFNVML [DFNB31, Q9P202]

target: T11, DLG3_1, Q92796; assay: holdup assay; design: key: below the threshold = too weak to quantify, mostly under pKd 3.1 to 4; conditions: plain residues with an end cap or a label only (N-terminal biotin on a linker: ado-ado)

pKd | Binder
below the threshold | SAGADSETHC [SLCO1B1, Q9Y6L6]
below the threshold | FLVTEFNVML [DFNB31, Q9P202]

target: T12, TJP3_3, O95049; assay: holdup assay; design: key: below the threshold = too weak to quantify, mostly under pKd 3.1 to 4; conditions: plain residues with an end cap or a label only (N-terminal biotin on a linker: ado-ado)

pKd | Binder
below the threshold | SAGADSETHC [SLCO1B1, Q9Y6L6]
below the threshold | FLVTEFNVML [DFNB31, Q9P202]

target: T13, DVL3, Q92997; assay: holdup assay; design: key: below the threshold = too weak to quantify, mostly under pKd 3.1 to 4; conditions: plain residues with an end cap or a label only (N-terminal biotin on a linker: ado-ado)

pKd | Binder
below the threshold | SAGADSETHC [SLCO1B1, Q9Y6L6]
3.66 | FLVTEFNVML [DFNB31, Q9P202]

target: PDLIM1, O00151; assay: holdup assay; design: key: below the threshold = too weak to quantify, mostly under pKd 3.1 to 4; conditions: plain residues with an end cap or a label only (N-terminal biotin on a linker: ado-ado)
Sequence (O00151 1-87): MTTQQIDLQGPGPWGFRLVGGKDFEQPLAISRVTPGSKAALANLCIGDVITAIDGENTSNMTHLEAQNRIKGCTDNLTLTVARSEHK

pKd | Binder
below the threshold | SAGADSETHC [SLCO1B1, Q9Y6L6]
3.75 | FLVTEFNVML [DFNB31, Q9P202]
